Test results from publication doi:10.1101/2021.04.08.438961 (bioRxiv, 2021).
Changes are numbered by the printed parent chain. Numbers in names are those of the source. Where “and” joins values, the source holds several entries; their conditions need not be identical. Equal entries are not always repeated.

B1: MinD (natural protein)
chain: MARIIVVTSGKGGVGKTTSSAAIATGLAQKGKKTVVIDFDIGLRNLDLIMGCERRVVYDFVNVIQGDATLNQALIKDKRTENLYILPASQTRDKDALTREGVAKVLDDLKAMDFEFIVCDSPAGIETGALMALYFADEAIITTNPEVSSVRDSDRILGILASKSRRAENGEEPIKEHLLLTRYNPGRVSRGDMLSMEDVLEILRIKLVGVIPEDQSVLRASNQGEPVILDINADAGKAYADTVERLLGEERPFRFIEEEKKGFLKRLFGG
B2: MinD D40A (natural protein)
chain: B1 chain with D40A
B3: MinE (natural protein)
chain: MALLDFFLSRKKNTANIAKERLQIIVAERRRSDAEPHYLPQLRKDILEVICKYVQIDPEMVTVQLEQKDGDISILELNVTLPEAEELK

Tests used:
[1] = biological target: the molecule itself; assay: mass-sensitive particle tracking
[2] = biological target: B1; assay: mass-sensitive particle tracking

Row | Binder | stoichiometry N [1] | binding result [2]
1 | B1 | 2 and > 2 and 3 and 4 | –
2 | B2 | 2 and 4 | –
3 | B3 | – | binds
